Data from publication PMC3237458, “PEGylation Potentiates the Effectiveness of an Antagonistic Peptide That Targets the EphB4 Receptor with Nanomolar Affinity” (PLoS ONE, 2011).

Biological target: EphB4 Fc (UniProt P54761)
Sequence (P54761 16-539): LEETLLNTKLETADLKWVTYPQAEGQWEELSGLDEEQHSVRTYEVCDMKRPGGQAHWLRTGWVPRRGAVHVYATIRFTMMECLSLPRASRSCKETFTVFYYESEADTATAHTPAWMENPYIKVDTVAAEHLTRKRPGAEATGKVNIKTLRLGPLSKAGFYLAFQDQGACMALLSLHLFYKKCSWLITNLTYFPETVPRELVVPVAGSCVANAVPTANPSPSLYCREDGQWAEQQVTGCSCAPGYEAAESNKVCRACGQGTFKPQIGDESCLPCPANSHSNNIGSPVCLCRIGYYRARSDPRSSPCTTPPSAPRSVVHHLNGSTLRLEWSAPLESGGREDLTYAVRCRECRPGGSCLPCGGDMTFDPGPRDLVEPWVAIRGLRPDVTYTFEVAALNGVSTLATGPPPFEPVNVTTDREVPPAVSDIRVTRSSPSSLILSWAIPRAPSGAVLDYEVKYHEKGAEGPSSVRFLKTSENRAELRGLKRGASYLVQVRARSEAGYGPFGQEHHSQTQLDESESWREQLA

With “PEGylated TNYL-RAW (PEG-TNYL-RAW) (peptide)” the inhibition of ephrin-B2 Fc-induced tyrosine phosphorylation of endogenous EphB4 in B16 melanoma cells (blocks EphB4 with ephrin-B2); 2 µM peptide reduce phosphorylation to undetectable levels was 90 nM.
